Reference: patent US9782486B2, “Albumin conjugated temperature and pH-sensitive multi-block copolymer, a method of preparation thereof and drug delivery system using the same” (Research & Business Foundation Sungkyunkwan University, priority 2014, dated 2017)
Where two headings read alike, the source gives them in different places.

Assays:
[1] = Zeta potential measurement; format: physicochemical; conditions: solution alone, pH 7.4, 1 mg/mL, room temperature
Method: The zeta potential values of the PAU and PAUBSA conjugates were measured at room temperature by Metasizer Nano ZS instrument (Malvern Instrument). The solution concentrations for all samples were 1 mg/mL and their pH was adjusted to 7.4. The solutions were stabilized at room temperature for 20 minutes before measurement.

[2] = In vivo lysozyme release, lysozyme in blood serum (ELISA); set-up: species or system male SD rats
Method: (§1) In order to examine the in vivo release of lysozyme, a sample solution loaded with 250 μL of lysozyme was injected to male SD rats (three rats per group). At predetermined times, blood samples were collected from the caudal vein, centrifuged to obtain blood sera, and stored them at −21° C. until the next analysis. The concentration of the lysozyme in the blood sera was measured using a commercial lysozyme (LZM) ELISA kit (Cusabio, China).
as §1, with “tunes,” for “times,”

[3] = cited from earlier work
[4] = single subcutaneous injection of lysozyme-loaded sample

Substance: lysozyme: chicken egg white lysozyme, model protein loaded into the hydrogels; also injected as plain solution
- zeta potential [1]: 11.2 mV
- duration of lysozyme release until serum lysozyme reached the normal level [2, 4]: within nine days
- initial burst release of lysozyme in vivo [2, 4]: initial burst was obviously observed
- time to reach peak lysozyme level ([2]; single subcutaneous injection, 10 mg/mL lysozyme): within two days
- peak lysozyme level in blood ([2]; single subcutaneous injection, 10 mg/mL lysozyme in the preparation): about 447 ng/mL
- temperature up to which thermal stability is maintained ([3]; in the presence of an anionic modified polymer): up to 72 °C
- bioactivity of lysozyme released from PEG-based hydrogels and other polymeric devices ([3]; up to 28 days): about 95%
- bioactivity of lysozyme released from PEG-based hydrogels and other polymeric devices ([3]; up to 50 days): 100%
